Consider six molecules from US20170158753A1.

Experiment [1] has as its target MARV GP[change] (Marburg virus) (UniProt P35253).
For experiment [2], the target named is SUDV GP[change] (Sudan virus) (UniProt Q66814).
Experiment [3] has as its target MARV GP[change] (Marburg virus), P35253. As to conditions: remark: other sources report otherwise.
The target in experiment [4] is EBOV GP[change] (Ebola virus), Q05320. As to conditions: remark: other sources report otherwise.
Experiment [5] concerns the target cleaved EBOV GP (GPcl) (Ebola virus (EBOV)), Q05320. The experiment is described as follows: ELISA on thermolysin cleaved EBOV GP (GPcl), OD650 against nM mAb. As to conditions: remark: other sources report otherwise.
For experiment [6], the target named is EBOV GP[change] (Ebola virus), Q05320. As to conditions: remark: other sources report otherwise. This is another data set of the same source.
Experiment [7] addresses BDBV GP[change] (Bundibugyo virus (BDBV)). Description: ELISA, GPΔTM coated.
The target in experiment [8] is RESTV GP[change] (Reston virus) (UniProt Q66799).
Experiment [9] has as its target EBOV GP[change] (Ebola virus) (UniProt Q05320).
Experiment [10] has as its target cleaved EBOV GP (GPcl) (Ebola virus (EBOV)), Q05320. Description: ELISA on cathepsin-cleaved EBOV GP at pH 7. As to conditions: remark: other sources report otherwise.
For experiment [11] the target is unchanged. The experiment is described as follows: ELISA, cleaved EBOV GP coated. As to conditions: remark: other sources report otherwise.
For experiment [12] the target is unchanged. Description: ELISA on cathepsin-cleaved EBOV GP at pH 5.5. To be noted: remark: other sources report otherwise.
Experiment [13] concerns the target EBOV GP[change] (Ebola virus) (UniProt Q05320). This is another data set of the same source.
In experiment [14] the target is EBOV GP[change] (Ebola virus), Q05320. To be noted: remark: other sources report otherwise. This is another data set of the same source.

Positions count from the first letter of the chain named. Several values for one entry are separate records, joined by “and”; a condition that tells them apart may be missing. Identical values can stand only once. Like-named read-outs stand apart in the source and are kept apart here.

B1: m21B2 (antibody, V domains shown)
VH: EVQLQESGAELVRPGASVTLSCKTSGYTFTDYEMHWVKQTPVHGLEWIGAIDPETGGTAYNQKFKGKATLTADKSSSTAYMELSRLTSEDSAVYYCTGNYATDYWGQGTSVTVSS
VL: DIVMSQSPSSLAVSAGEKVTMSCKSSQSLFNSRSRKNYLAWYQLKPGQSPKLLIYWASTRESGVPDRFTGSGSGTDFTLTISSVQAEDLAVYYCKQSNYLWTFGGGTKLEIKR
As to B1, the EC50 in experiment [1] was 0.0688 µg/mL; in [2] it was above 10 µg/mL; in experiment [3] it was 0.0307 µg/mL; in [4], above 10 µg/mL.

B2: m16G8 (antibody, V domains shown)
VH: EVQLQESGPGLVKPGASVKISCKASGYSFTGYYMNWVKQSPEKSLEWIGEINPSTGGTTYNQKFKAKATLTVDKSSSTAYMQLKSLTSEDSAVYYCVRYSHYYGSGSWYFDVWGTGTTVTVSS
VL: DIQMTQSPASLSASVGETVTITCRASENIYSNLAWYQQKQGKSPQLLVNAATNLADGVPSRFSGSGSGTQFSLKINSLQPEDFGSYYCQHFYVTPYMFGSGTKLEIKR
For B2, the EC50 is above 100 nM in experiment [5], 3.3 nM in experiment [6] and 1.23 µg/mL in [4].

B3: m2E4 (antibody, V domains shown)
VH: B2 VH with G10E
VL: B2 VL with M97T
On to B3, for which the concentration for a half-maximal effect (EC50) in experiment [7] was 0.69 µg/mL; in experiment [8], above 10 µg/mL; in experiment [9], above 10 µg/mL.

B4: m2D8 (antibody, V domains shown)
VH: EVQLQESGGELVRPGTSVKISCKASGYTFTNFWLGWIKERPGHGLEWIGDIYPGGHYTNYNENFKGKATLTADTSSNTAYMQVSSLTSEDSAVYFCFTQYYDMDYWGQGTSVTVSS
VL: not shown
As for B4, the 50% effective concentration (EC50 (read off the curve)) in experiment [10] was 0.7 µg/mL; in experiment [12], 1 µg/mL. The EC50 was 0.72 µg/mL in [11], 0.0573 µg/mL in [3] and 26.2 µg/mL in [4].

B5: m8C4 (antibody, V domains shown)
VH: EVQLQESGPELKKPGETVKISCKASGYTFTTYGMSWVKQAPGKGLKWMGRINTYSGVPTYADEFKGRFAFSLENSASTAYLQINNLKNEDTATYFCARGDGGHWFANWGQGTLVTVSA
VL: DIQMTQSPSSLSASLGGKVTITCKASQDINKNIAWYQHKPGKGPRLLIWYKSALQPGIPSRFSGSGSGRDYSFSISNLEPEDIATYSCLQYDNLPPTFGGGTKLEIKR
For B5, the EC50 in [7] was above 10 µg/mL; in [9], 0.26 µg/mL; in experiment [2] it was 0.15 µg/mL and 0.06 µg/mL; in experiment [13], 6.7 nM; in experiment [6] it was 2.6 nM; in experiment [4] it was 0.21 µg/mL.

B6: m17C6 (antibody, V domains shown)
VH: EVQLQESGPGLVQPSQSLSITCTVSGFSLTSYGVHWVRQSPGKGLEWLGVIWSGGSTDYNAAFISRLSISKDNSKSQVFFKMNSLQADDTAIYYCARNWFDYDNYYSMDYWGQGTSVTVSS
VL: DIQMTQTTSSLSASLGDRVTISCRASQDISNYLNWYQQKPDGTVKLLIYYTSRLHSGVPSRFSGSGSGTDFSLTISNQEPEDIATYYCQQYSNLPWTFGGGTKLEIKR
Turning to B6, the EC50 in experiment [5] worked out at 0.6 nM; in experiment [6] it was 1 nM; in experiment [4], 0.03 µg/mL. The Kd in [14] amounted to 11 nM.
